Laboratory results taken from patent US20230190867A1 (BIOINCEPT, published 2023).
No end group written: not given here.

Columns and labels:
[1] = biological target: T1, Elongation factor 1-alpha 1 (human, UniProt P68104 2-462); experiment: PIF-agarose affinity extraction, liver lysate column of Table 4 (row 'Eef1a1')
T1 construct: also called Eef1a1
T1 sequence (looked up): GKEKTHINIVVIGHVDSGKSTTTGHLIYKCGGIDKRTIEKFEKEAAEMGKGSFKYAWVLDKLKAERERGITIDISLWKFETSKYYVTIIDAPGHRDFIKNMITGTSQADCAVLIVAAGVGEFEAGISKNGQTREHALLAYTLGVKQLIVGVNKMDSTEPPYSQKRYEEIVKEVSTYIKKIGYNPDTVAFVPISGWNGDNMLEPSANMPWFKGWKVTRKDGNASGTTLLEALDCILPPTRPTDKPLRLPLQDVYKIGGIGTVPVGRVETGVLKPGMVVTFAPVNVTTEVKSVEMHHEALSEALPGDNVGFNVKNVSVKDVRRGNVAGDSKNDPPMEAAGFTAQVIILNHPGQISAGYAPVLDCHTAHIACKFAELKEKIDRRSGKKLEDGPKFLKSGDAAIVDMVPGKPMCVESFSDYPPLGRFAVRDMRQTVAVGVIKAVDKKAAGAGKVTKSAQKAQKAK

[2] = biological target: T2, D-3-phosphoglycerate dehydrogenase (human, UniProt O43175 2-533); experiment: PIF-agarose affinity extraction, liver lysate column of Table 4
T2 sequence (looked up): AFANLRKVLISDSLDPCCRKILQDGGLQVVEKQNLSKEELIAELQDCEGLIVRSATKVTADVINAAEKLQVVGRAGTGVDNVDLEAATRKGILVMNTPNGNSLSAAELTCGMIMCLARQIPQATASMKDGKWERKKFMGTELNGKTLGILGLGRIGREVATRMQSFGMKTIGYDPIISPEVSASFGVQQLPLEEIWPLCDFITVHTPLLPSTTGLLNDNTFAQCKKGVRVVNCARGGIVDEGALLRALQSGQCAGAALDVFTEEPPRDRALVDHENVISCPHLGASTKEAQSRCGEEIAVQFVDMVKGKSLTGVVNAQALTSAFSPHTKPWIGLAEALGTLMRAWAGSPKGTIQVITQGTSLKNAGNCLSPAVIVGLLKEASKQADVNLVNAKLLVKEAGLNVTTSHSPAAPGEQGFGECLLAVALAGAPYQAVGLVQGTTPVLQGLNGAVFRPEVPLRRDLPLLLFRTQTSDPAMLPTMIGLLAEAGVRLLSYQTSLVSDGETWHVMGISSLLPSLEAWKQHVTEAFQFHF

[3] = biological target: Serine/arginine-rich-splicing factor 1 (human, UniProt Q07955 2-248); experiment: as above
[4] = biological target: Isoform 2 of Tropomyosin beta chain (human, UniProt P07951-2 1-284); experiment: as above
Alpha-actinin-1 = Alpha-actinin-1 (human, UniProt P12814 1-892); experiment: as above
[5] = biological target: T3, Serine/arginine-rich-splicing factor 2 (human, UniProt Q01130 2-221); experiment: as above
T3 sequence (looked up): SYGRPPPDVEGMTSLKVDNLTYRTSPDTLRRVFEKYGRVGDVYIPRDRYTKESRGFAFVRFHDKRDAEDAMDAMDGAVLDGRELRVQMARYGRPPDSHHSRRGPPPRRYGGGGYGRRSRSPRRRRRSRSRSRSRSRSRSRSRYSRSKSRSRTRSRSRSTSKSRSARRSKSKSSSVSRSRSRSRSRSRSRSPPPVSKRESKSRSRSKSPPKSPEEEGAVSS

[6] = biological target: ATP synthase subunit beta, mitochondrial (human, UniProt P06576 48-529); experiment: as above
[7] = biological target: T4, 14-3-3 protein beta/alpha (human, UniProt P31946 1-246); experiment: as above
T4 sequence (looked up): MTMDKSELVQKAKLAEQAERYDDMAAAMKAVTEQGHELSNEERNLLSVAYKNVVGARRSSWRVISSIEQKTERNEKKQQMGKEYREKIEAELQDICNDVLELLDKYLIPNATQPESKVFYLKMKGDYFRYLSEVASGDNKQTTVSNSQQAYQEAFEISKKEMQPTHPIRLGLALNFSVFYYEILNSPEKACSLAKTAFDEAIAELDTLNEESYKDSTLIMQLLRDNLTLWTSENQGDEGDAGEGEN

PRDX4 = biological target: T5, PRDX4 (human, UniProt Q13162 38-271); experiment: as above
T5 sequence (looked up): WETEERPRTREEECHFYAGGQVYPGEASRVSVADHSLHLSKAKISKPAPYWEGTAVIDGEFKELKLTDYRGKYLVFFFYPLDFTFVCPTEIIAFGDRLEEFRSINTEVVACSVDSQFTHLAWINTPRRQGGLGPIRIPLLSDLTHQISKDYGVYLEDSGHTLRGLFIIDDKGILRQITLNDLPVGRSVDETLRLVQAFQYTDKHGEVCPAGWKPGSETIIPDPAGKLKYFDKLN

Annexin A2 = Annexin A2 (human, UniProt P07355 2-339); experiment: as above
[8] = biological target: 40S ribosomal protein S3a (human, UniProt P61247 2-264); experiment: as above
[9] = biological target: Acidic leucine-rich nuclear phosphoprotein 32 family Member A (human, UniProt P39687 1-249); experiment: as above
14-3-3 protein gamma = biological target: T6, 14-3-3 protein gamma (human, UniProt P61981 1-247); experiment: as above
T6 sequence (looked up): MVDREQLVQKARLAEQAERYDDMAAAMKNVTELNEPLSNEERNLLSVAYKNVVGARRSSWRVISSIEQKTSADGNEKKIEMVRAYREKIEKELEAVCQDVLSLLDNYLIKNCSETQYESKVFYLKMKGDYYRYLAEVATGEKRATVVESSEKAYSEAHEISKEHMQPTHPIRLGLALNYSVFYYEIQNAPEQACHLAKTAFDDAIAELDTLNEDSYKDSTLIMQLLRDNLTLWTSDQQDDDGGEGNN

[10] = biological target: T7, 14-3-3 protein zeta/delta (human, UniProt P63104 1-245); experiment: as above
T7 sequence (looked up): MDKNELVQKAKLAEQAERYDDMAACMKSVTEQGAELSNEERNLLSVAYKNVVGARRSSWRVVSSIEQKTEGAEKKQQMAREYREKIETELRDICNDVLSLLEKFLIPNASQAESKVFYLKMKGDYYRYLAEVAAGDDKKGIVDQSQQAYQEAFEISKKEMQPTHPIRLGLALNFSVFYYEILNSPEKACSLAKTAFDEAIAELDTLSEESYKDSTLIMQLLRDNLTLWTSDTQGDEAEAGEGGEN

14-3-3 protein eta = biological target: T8, 14-3-3 protein eta (human, UniProt Q04917 2-246); experiment: as above
T8 sequence (looked up): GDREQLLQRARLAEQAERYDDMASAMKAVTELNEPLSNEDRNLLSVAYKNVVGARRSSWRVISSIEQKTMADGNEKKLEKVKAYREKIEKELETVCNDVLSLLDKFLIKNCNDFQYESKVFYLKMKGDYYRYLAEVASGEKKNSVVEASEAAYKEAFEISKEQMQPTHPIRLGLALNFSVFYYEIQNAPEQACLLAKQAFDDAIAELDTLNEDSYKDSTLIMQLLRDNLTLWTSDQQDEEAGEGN

[11] = biological target: Isoform 2 of Tropomyosin alpha-3 chain (human, UniProt P06753-2 2-248); experiment: as above
Isoform 2 of Protein SET = Isoform 2 of Protein SET (human, UniProt Q01105-2 2-277); experiment: as above
14-3-3 protein theta = biological target: T9, 14-3-3 protein theta (human, UniProt P27348 1-245); experiment: as above
T9 sequence (looked up): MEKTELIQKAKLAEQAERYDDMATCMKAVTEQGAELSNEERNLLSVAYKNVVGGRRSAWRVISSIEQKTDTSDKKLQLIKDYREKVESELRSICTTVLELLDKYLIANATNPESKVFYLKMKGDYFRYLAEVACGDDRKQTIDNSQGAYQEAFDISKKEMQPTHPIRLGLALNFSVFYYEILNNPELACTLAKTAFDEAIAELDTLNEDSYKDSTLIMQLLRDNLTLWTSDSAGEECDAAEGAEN

Cytochrome P450 26A1 = biological target: T10, Cytochrome P450 26A1 (human, UniProt O43174 1-497); experiment: as above
T10 sequence (looked up): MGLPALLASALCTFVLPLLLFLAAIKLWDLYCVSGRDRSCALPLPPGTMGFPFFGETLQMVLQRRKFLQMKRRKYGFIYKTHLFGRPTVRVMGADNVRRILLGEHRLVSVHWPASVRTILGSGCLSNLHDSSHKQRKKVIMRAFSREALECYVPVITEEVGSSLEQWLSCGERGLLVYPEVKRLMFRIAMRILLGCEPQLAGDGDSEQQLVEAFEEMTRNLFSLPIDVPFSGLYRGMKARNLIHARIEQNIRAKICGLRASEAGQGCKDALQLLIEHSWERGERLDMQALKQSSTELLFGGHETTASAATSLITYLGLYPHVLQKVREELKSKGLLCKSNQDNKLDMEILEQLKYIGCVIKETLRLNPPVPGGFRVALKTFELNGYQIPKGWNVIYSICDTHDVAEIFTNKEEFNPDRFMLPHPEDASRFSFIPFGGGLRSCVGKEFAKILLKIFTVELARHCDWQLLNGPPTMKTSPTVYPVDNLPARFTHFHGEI

[12] = biological target: Isoform 2 of Heat shock protein HSP 90-alpha (human, UniProt P07900-2 1-854, limits assumed); experiment: as above
[13] = biological target: Actin, alpha skeletal muscle (human, UniProt P68133 3-377); experiment: as above
Thioredoxin = biological target: T11, Thioredoxin (human, UniProt P10599 2-105); experiment: as above
T11 sequence (looked up): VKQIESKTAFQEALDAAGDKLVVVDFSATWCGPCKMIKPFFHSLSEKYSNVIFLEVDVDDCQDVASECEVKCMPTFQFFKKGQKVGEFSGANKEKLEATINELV

Cofilin-1 = Cofilin-1 (human, UniProt P23528 2-166); experiment: as above
[14] = biological target: Isoform 2 of Tropomyosin alpha-4 chain (human, UniProt P67936-2 1-284); experiment: as above
[15] = biological target: Eukaryotic initiation factor 4A-I (human, UniProt P60842 2-406); experiment: as above
Isoform C of Lamin-A/C = biological target: T12, Isoform C of Lamin-A/C (human, UniProt P02545-2 1-572); experiment: as above
T12 sequence (looked up): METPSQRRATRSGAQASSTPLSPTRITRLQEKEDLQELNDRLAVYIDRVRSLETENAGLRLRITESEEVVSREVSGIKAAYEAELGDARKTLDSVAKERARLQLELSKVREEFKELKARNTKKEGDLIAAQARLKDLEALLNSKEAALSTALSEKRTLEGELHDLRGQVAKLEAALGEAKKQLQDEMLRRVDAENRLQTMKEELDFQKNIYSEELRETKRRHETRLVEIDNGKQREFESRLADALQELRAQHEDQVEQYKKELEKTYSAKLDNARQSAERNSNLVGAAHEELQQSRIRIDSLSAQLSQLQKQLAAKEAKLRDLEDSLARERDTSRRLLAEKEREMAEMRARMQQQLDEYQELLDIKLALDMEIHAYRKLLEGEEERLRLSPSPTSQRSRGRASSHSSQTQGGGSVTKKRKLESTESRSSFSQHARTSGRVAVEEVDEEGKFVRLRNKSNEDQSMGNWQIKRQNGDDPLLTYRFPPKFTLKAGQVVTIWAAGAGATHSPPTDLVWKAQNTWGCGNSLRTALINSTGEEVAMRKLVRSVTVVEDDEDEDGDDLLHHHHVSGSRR

Nucleolin = Nucleolin (human, UniProt P19338 2-710); experiment: as above

Measured: binding result

B1: sPIF-1(15) (peptide)
peptide: MVRIKPGSANKPSDD
modifications: also: coupled to agarose support
notes: also called synthetic preimplantation factor
binds: [1] | [2] | [3] | [4] | Alpha-actinin-1 | [5] | [6] | [7] | PRDX4 | Annexin A2 | [8] | [9] | 14-3-3 protein gamma | [10] | 14-3-3 protein eta | [11] | Isoform 2 of Protein SET | 14-3-3 protein theta | Cytochrome P450 26A1 | [12] | [13] | Thioredoxin | Cofilin-1 | [14] | [15] | Isoform C of Lamin-A/C | Nucleolin
